The values below come from article PMC1939876.

Holding throughout (assay): EMSA
The test system of data set [1] is VP16-6ZfFLO11/F2-F1 (engineered). Particulars: Buffer, salt, pH and temperature not given (methods cited); phage ELISA with 0.125-32 nM DNA; EMSA with 5-fold dilution series of TNT-expressed protein.
The test system of data set [2] is VP64-6ZfFLO11/F2-F1 (engineered). Conditions: Buffer, salt, pH and temperature not given (methods cited); phage ELISA with 0.125-32 nM DNA; EMSA with 5-fold dilution series of TNT-expressed protein.
A further data set has as its system Zif268 3F peptide. Conditions: calibration reference; value from ref 51; Buffer, salt, pH and temperature not given (methods cited); phage ELISA with 0.125-32 nM DNA; EMSA with 5-fold dilution series of TNT-expressed protein; cited from earlier work. (A gel shift assay detects complexes by their altered migration in electrophoresis.)

One may read the Kd as the free concentration of one partner at which half of the binding sites on the other are occupied at equilibrium, for simple one-to-one binding.

“TFLO11/F2-F1 (also called F1-F2) 31-bp oligo”: the binding signal (fold stronger than 3F rTFs) in data set [1] and in data set [2] was 10 each time.
For Zif268 cognate 9-bp site, in the data set with Zif268 3F peptide, the Kd is 2 nM.
